Laboratory results reported in patent US20260356960 (published 2026).
Where no end group is shown, it is not given here.

T1: sST2 recombinant (human)
T1 chain: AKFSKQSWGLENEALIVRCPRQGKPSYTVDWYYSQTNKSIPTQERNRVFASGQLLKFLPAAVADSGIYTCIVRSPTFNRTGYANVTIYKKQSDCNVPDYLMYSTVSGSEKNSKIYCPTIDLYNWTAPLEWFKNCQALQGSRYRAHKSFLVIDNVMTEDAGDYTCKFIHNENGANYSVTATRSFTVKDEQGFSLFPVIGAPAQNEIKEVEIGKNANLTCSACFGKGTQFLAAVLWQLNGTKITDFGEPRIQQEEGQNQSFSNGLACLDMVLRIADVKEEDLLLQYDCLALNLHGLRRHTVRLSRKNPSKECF

T2: SKECF peptide (human, not fully specified)
T2 chain: SKECF


Experiments:
sST2 recombinant = molecular target: T1, sST2 recombinant; assay: ELISA
SKECF peptide = molecular target: T2, SKECF peptide; assay: SPR

Kd (sST2 recombinant) | Kd (SKECF peptide) | Binder
23 µM | – | scFv-αsST2 (scFv 96-1) (antibody, listing feature) MQVQLQQWGAGLLKPSETLSLTCAVYGGSFSGYYWSWIRQPPGKGLEWIGEINHSGSTNYNPSLKSRVTVSLDTSKNQFSLKLSSVTAADTAVYYCARGRGLVRFDSWGQGTTVTVSSGGGGSGGGGSGGGGSEIVLTQSPGTLSLSPGDRATLSCRASQFVGSSSVAWYQQRPGQAPRLLIYAAVSRASGIPDRFSGGGSGTDFTLTISRLEPEDSAVYYCLQYGSALYTFGQGTKLEIK
– | 1.71 µM | scFv-αsST2 (scFv 96-1) (antibody) MQVQLQQWGAGLLKPSETLSLTCAVYGGSFSGYYWSWIRQPPGKGLEWIGEINHSGSTNYNPSLKSRVTVSLDTSKNQFSLKLSSVTAADTAVYYCARGRGLVRFDSWGQGTTVTVSSGGGGSGGGGSGGGGSEIVLTQSPGTLSLSPGDRATLSCRASQFVGSSSVAWYQQRPGQAPRLLIYAAVSRASGIPDRFSGGGSGTDFTLTISRLEPEDSAVYYCLQYGSALYTFGQGTKLEIK
